In the supplement of paper PMC9732359:
± gives the uncertainty stated by the source.

Experiment: protein stability index of a GFP-peptide fusion (yeast GPS) (PSI 1-4); higher = more stable; sorted into four equal gates, so the index is relative within each strain
Method in brief: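 Plasmids isolated from each sorting gate were PCR-amplified and Illumina-sequenced, and barcodes assigned the reads to strains. The gates, four of equal size, were set by GFP/Cherry fluorescence ratio on mid-log cultures in leucine-free medium. These cultures were yeast carrying a pooled library of tiled 17-residue yeast protein peptides fused downstream of GFP on a plasmid that also expresses Cherry. The protein stability index is the sum of every gate's read frequency times its gate number.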

Sequence	protein stability index (doa10∆)	protein stability index (pdr5∆)	protein stability index (san1∆)	protein stability index (ubr1∆)
NLQPASVINNYLREDQM [NUT1]	2.61 ± 0.075	3.08 ± 0.099	2.82 ± 0.094	2.93 ± 0.14
NSLTVDGNNANYIYAGY [RPN14]	2.87 ± 0.088	2.55 ± 0.078	2.42 ± 0.092	2.85 ± 0.049
LQVDVDIAGQRDDALVV [RRP42]	2.07 ± 0.17			
NIQKKQPAKEKGVTEKD [RRP6]	3.12 ± 0.1	3.17 ± 0.045	3.11 ± 0.051	3.28 ± 0.047
RQLSPHTLMSFAGEAGD [PRE1]	1.69 ± 0.052	1.87 ± 0.057	1.83 ± 0.12	1.96 ± 0.041
LYSIREDYELSPQAVSS [PRE1]	2.2 ± 0.13	2.83 ± 0.097	2.63 ± 0.062	2.38 ± 0.069
IMLLQLELGSCFSQENI [SIN4]	1.64 ± 0.046	1.87 ± 0.047	2.52 ± 0.067	2.27 ± 0.062
RFQDPYVAIVVDPLKSL [RRI1]		2.79 ± 0.13	2.26 ± 0.2	2.69 ± 0.13
LSLNLGDYGSAKCNSLL [POP5]	2.47 ± 0.061	2.94 ± 0.077	2.57 ± 0.081	2.46 ± 0.093
YRMKGGRVTFIPLNRLS [SMC3]	1.46 ± 0.14	1.15 ± 0.099	1.07 ± 0.24	1.36 ± 0.13
HEFTLSFTYELKQHNQN [BRR2]	1.98 ± 0.074	1.97 ± 0.054	2.4 ± 0.08	2.43 ± 0.073
FAEYIQANIQLYSIRED [PRE1]	2.39 ± 0.1	2.67 ± 0.091	2.49 ± 0.068	2.59 ± 0.091
PVTSIPSTNKKLSISNA [GAL11]	2.29 ± 0.061	2.67 ± 0.056	2.53 ± 0.058	2.8 ± 0.058
LPGTNNNSNSNNNSSNE [SEC65]	2.93 ± 0.051	2.69 ± 0.054	2.89 ± 0.042	2.8 ± 0.049
GPLAEEPIYGVQYKLLS [SNU114]	2.9 ± 0.11	2.6 ± 0.12	2.74 ± 0.08	3.17 ± 0.13
LLSSESNIPTLIEKLQG [YDL116W/NUP84]	2.42 ± 0.091	3.01 ± 0.11	2.6 ± 0.047	3.07 ± 0.072
VEELMKKRRGSRIYKTI [SNU114]	1.86 ± 0.048	1.75 ± 0.053	1.62 ± 0.088	1.83 ± 0.053
DTKLKAHELQSEDVSRD [YIL149C/MLP2]	2.77 ± 0.058	2.95 ± 0.055	3.03 ± 0.048	2.86 ± 0.047
SMNNDFQQQQQQQQQQQ [PGD1]	2.43 ± 0.1	2.9 ± 0.16	2.54 ± 0.11	2.29 ± 0.14
YKVLKQTHPDTGISQKS [HTB1]	2.42 ± 0.077	2.51 ± 0.074	2.21 ± 0.081	1.68 ± 0.04
PLKTQTKNGTPNPNNMK [GAL11]	2.98 ± 0.085	2.94 ± 0.084	2.73 ± 0.046	2.95 ± 0.043
KEPVDDKDVKAKYETSI [FAS2]	3.2 ± 0.086	3.21 ± 0.12	2.43 ± 0.12	2.83 ± 0.13
EKVSSVLSALEGKSVDE [RPP2A]	2.57 ± 0.077	2.09 ± 0.049	2.16 ± 0.078	1.87 ± 0.038
IFKDKEKLVSDLRLIKV [SMC1]	3.25 ± 0.26	3.23 ± 0.089	3.31 ± 0.21	3.44 ± 0.15
VTYSRVSKKVDVRRLKK [BRN1]		1.32 ± 0.14		3.23 ± 0.15
SAAKYKDMKLLRYYKNI [NUT1]	1.83 ± 0.059	2.2 ± 0.06	2.23 ± 0.079	1.99 ± 0.04
DVVERLHKNFESENFKI [RGR1]	3.74 ± 0.18	3.4 ± 0.3	3.23 ± 0.18	3.81 ± 0.18

Sequence	protein stability index (doa10∆)	protein stability index (pdr5∆)	protein stability index (san1∆)	protein stability index (ubr1∆)
IFISSDHEFVLISLIMT [YMR129W/POM152]	1.3 ± 0.13	1.24 ± 0.071	2.01 ± 0.16	1.61 ± 0.29
IDSPELLSLISTTAALQ [RPN7]	2.23 ± 0.04	2.65 ± 0.041	2.32 ± 0.041	2.45 ± 0.032
AEASGEAADEADEADEE [RPS9A]	3.35 ± 0.23	3.03 ± 0.28	3.01 ± 0.15	3.45 ± 0.12
LIVDVKQQGVGLPTDAY [RPN8]	2.07 ± 0.25	2.77 ± 0.25	1.28 ± 0.26	
SLYKVSFLEKPKFAIQD [YMR129W/POM152]	2.93 ± 0.11	2.68 ± 0.12	2.77 ± 0.071	2.53 ± 0.13
LRTEYGWDSLASRNVWS [SNU114]	2.85 ± 0.099	3.11 ± 0.12	3.4 ± 0.099	3.38 ± 0.076
SLNLGIGIVEIAHENEQ [SRB8]	1.43 ± 0.11	2.07 ± 0.084	2.52 ± 0.11	2.08 ± 0.087
DSVLLNRGNKKRHRSSY [YML031W/NDC1]	3.03 ± 0.099	3.25 ± 0.1	3.04 ± 0.06	3.15 ± 0.076
VNAIKNEVKEWAVTLDT [DSN1]	3.11 ± 0.13	2.82 ± 0.13	3.1 ± 0.074	3.33 ± 0.12
SSIDKIEDRDFLVRYAC [SIR3]	2.9 ± 0.17			3.02 ± 0.21
QQTEKLNPQVADINKNF [RPN2]	1.91 ± 0.066	2.42 ± 0.058	2.44 ± 0.07	2.49 ± 0.055
FIRDELDENKWYKFNDD [UBP6]	1.86 ± 0.063	2.15 ± 0.043	1.94 ± 0.096	1.97 ± 0.062
YFPEGYNNKVGVAASQG [SIR2]	1.64 ± 0.055	2.03 ± 0.063	2.04 ± 0.16	1.81 ± 0.062
HFGHCFNITDNGVRALF [GRR1]	2.07 ± 0.18	2.65 ± 0.13		2.64 ± 0.1
NSDDCMMEEIINVVIKA [ECM29]	3.31 ± 0.14	3.67 ± 0.18	3.14 ± 0.11	2.97 ± 0.11
KEPPRDRKKDKNVKHSG [RPL12A]	3.29 ± 0.09	3.12 ± 0.084	3.22 ± 0.067	3.17 ± 0.061
MGSLINGITLALIDAGI [SKI6]	1.89 ± 0.1	2.1 ± 0.055	2.05 ± 0.075	2 ± 0.051
ARLEPGTAIGAIGAQSI [RPO31]	2.76 ± 0.097	1.82 ± 0.079	1.49 ± 0.14	2.39 ± 0.053
KKCLKLAYENKITDKED [POP4]	2.698 ± 0.022	2.785 ± 0.027	2.797 ± 0.02	3.032 ± 0.025
MAGLKDVVTREYTINLH [RPL31A]	3.02 ± 0.15	3.06 ± 0.14	3.01 ± 0.08	3.29 ± 0.16
AFPNASKKNRPTLQVGD [RRP40]	2.09 ± 0.19	2.75 ± 0.11	2.78 ± 0.16	2.99 ± 0.17
LFLNTGCLSVLYQSKGR [SRP68]	1.66 ± 0.054	1.55 ± 0.069	1.48 ± 0.12	1.25 ± 0.059
LLKLLTRLVQLREFRIT [GRR1]	1.89 ± 0.053	1.27 ± 0.044	1.23 ± 0.13	1.08 ± 0.052
ENVQIGEDFMEVDYEDK [SRB4]	3.48 ± 0.13	1.97 ± 0.17		2.2 ± 0.084
QMIDTSILPTRDDLFVR [NUT1]	2.86 ± 0.06	2.88 ± 0.062	2.73 ± 0.08	2.33 ± 0.044
KDLSNYRKTEGIFEKAK [YMR153W/NUP53]	3.01 ± 0.11	2.75 ± 0.1	3.04 ± 0.1	2.74 ± 0.086
QASGITAGAAANALGGL [SSN3]	2.56 ± 0.071	1.91 ± 0.068	2.13 ± 0.093	2.02 ± 0.058
